Ends that are not written are not given here. * marks the point of attachment. Ser‑Gly linker = flexible serine-glycine linker, six amino acids long; Biotin = O=C1N[C@H]2[C@H](CS[C@H]2CCCCC(=O)*)N1
B1: B-cell lymphoma extra-large protein (Bcl-xL), first 209 amino acids with N-terminal avitag (other)
chain: AGGLNDIFEAQKIEWHEGGMSQSNRELVVDFLSYKLSQKGYSWSQFSDVEENRTEAPEGTESEMETPSAINGNPSWHLADSPAVNGATGHSSSLDAREVIPMAAVKQALREAGDEFELRYRRAFSDLTSQLHITPGTAYQSFEQVVNELFRDGVNWGRIVAFFSFGGALCVESVDKEMQVLVSRIAAWMATYLNDHLEPWIQENGGWDTFVELYGNNAAAESRKGQER
modifications: biotin on the avitag (BirA biotin ligase); a non-biotinylated form was used as the excess competitor in solution in the off-rate assays
notes: range 1-209; Expressed in E. coli BL21(DE3); Used in solution (forward assays) or immobilized through biotin on streptavidin plates or beads (reverse assay, off-rate and HTSK experiments); not shown: His tag implied (pET24a NdeI/XhoI, Ni-NTA purification, anti-HIS probe)
B2: Peptide E2 (synthetic, biotin-labeled) (peptide)
peptide: MIETITIYKYKKAADHFSMSMGSK(Biotin)-NH2
modifications: N-terminus assumed
SMILES: CC[C@H](C)[C@H](NC(=O)[C@@H](NC(=O)[C@@H](NC(=O)[C@@H](NC(=O)[C@H](CCC(=O)O)NC(=O)[C@@H](NC(=O)[C@@H](N)CCSC)[C@@H](C)CC)[C@@H](C)O)[C@@H](C)CC)[C@@H](C)O)C(=O)N[C@@H](Cc1ccc(O)cc1)C(=O)N[C@@H](CCCCN)C(=O)N[C@@H](Cc1ccc(O)cc1)C(=O)N[C@@H](CCCCN)C(=O)N[C@@H](CCCCN)C(=O)N[C@@H](C)C(=O)N[C@@H](C)C(=O)N[C@@H](CC(=O)O)C(=O)N[C@@H](Cc1c[nH]cn1)C(=O)N[C@@H](Cc1ccccc1)C(=O)N[C@@H](CO)C(=O)N[C@@H](CCSC)C(=O)N[C@@H](CO)C(=O)N[C@@H](CCSC)C(=O)NCC(=O)N[C@@H](CO)C(=O)N[C@@H](CCCCNC(=O)CCCC[C@@H]1SC[C@@H]2NC(=O)N[C@@H]21)C(N)=O
notes: Solid phase Fmoc synthesis; also called E2 Pep
B3: Peptide E1 (synthetic, biotin-labeled) (peptide)
peptide: MIETITIYNYKKAADHFSMSMGSK(Biotin)-NH2
modifications: N-terminus assumed
SMILES: CC[C@H](C)[C@H](NC(=O)[C@@H](NC(=O)[C@@H](NC(=O)[C@@H](NC(=O)[C@H](CCC(=O)O)NC(=O)[C@@H](NC(=O)[C@@H](N)CCSC)[C@@H](C)CC)[C@@H](C)O)[C@@H](C)CC)[C@@H](C)O)C(=O)N[C@@H](Cc1ccc(O)cc1)C(=O)N[C@@H](CC(N)=O)C(=O)N[C@@H](Cc1ccc(O)cc1)C(=O)N[C@@H](CCCCN)C(=O)N[C@@H](CCCCN)C(=O)N[C@@H](C)C(=O)N[C@@H](C)C(=O)N[C@@H](CC(=O)O)C(=O)N[C@@H](Cc1c[nH]cn1)C(=O)N[C@@H](Cc1ccccc1)C(=O)N[C@@H](CO)C(=O)N[C@@H](CCSC)C(=O)N[C@@H](CO)C(=O)N[C@@H](CCSC)C(=O)NCC(=O)N[C@@H](CO)C(=O)N[C@@H](CCCCNC(=O)CCCC[C@@H]1SC[C@@H]2NC(=O)N[C@@H]21)C(N)=O
notes: Solid phase Fmoc synthesis; also called E1 Pep
B4: Peptide D1 (synthetic, biotin-labeled) (peptide)
peptide: MIAISTIYNYKKAADHYAMTKGSK(Biotin)-NH2
modifications: N-terminus assumed
SMILES: CC[C@H](C)[C@H](NC(=O)[C@H](C)NC(=O)[C@@H](NC(=O)[C@@H](N)CCSC)[C@@H](C)CC)C(=O)N[C@@H](CO)C(=O)N[C@H](C(=O)N[C@H](C(=O)N[C@@H](Cc1ccc(O)cc1)C(=O)N[C@@H](CC(N)=O)C(=O)N[C@@H](Cc1ccc(O)cc1)C(=O)N[C@@H](CCCCN)C(=O)N[C@@H](CCCCN)C(=O)N[C@@H](C)C(=O)N[C@@H](C)C(=O)N[C@@H](CC(=O)O)C(=O)N[C@@H](Cc1c[nH]cn1)C(=O)N[C@@H](Cc1ccc(O)cc1)C(=O)N[C@@H](C)C(=O)N[C@@H](CCSC)C(=O)N[C@H](C(=O)N[C@@H](CCCCN)C(=O)NCC(=O)N[C@@H](CO)C(=O)N[C@@H](CCCCNC(=O)CCCC[C@@H]1SC[C@@H]2NC(=O)N[C@@H]21)C(N)=O)[C@@H](C)O)[C@@H](C)CC)[C@@H](C)O
notes: Solid phase Fmoc synthesis; Also the capture ligand of the forward assays for peptide ligands; also called D1 Pep; D1 Peptide
B5: D1, radiolabeled in vitro translated peptide with C-terminal serine-glycine linker and HA tag (peptide)
peptide: MIAISTIYNYKKAADHYAMTK-{Ser‑Gly linker-HA tag}
modifications: also: 35S-labeled methionine
notes: not shown: flexible serine-glycine linker, six amino acids long; HA tag
B6: E1, radiolabeled in vitro translated peptide with C-terminal serine-glycine linker and HA tag (peptide)
peptide: MIETITIYNYKKAADHFSMSM-{Ser‑Gly linker-HA tag}
modifications: also: 35S-labeled methionine
notes: as for B5
B7: E2, radiolabeled in vitro translated construct used for the off-rate of Table 3 (peptide, not shown: small tags and cut ends)
peptide: MIETITIYKYKKAADHFSMSMGSK
modifications: also: 35S-labeled methionine, C-terminal extension: Ser-Gly linker and HA tag, or mRNA fusion

How the values were obtained:
[1] = molecular target: T1, Bim peptide (synthetic 26-residue fragment of Bim, biotin-labeled) (C-terminal amide; biotin on the side chain of the C-terminal Lys); assay: equilibrium AMMP, monovalent model
T1 sequence (peptide, as listed by the source): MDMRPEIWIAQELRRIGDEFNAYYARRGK
Protocol: (§1) AMMP Assays. For the AMMP assays, 90 μL of each sample or standards was incubated with 30 μL of magnetic beads (12 μg of beads/mL) and fluorescein-labeled antibody (8 nM) in sample buffer for 1 hour. The experiment's run buffer was 1×PBS+1% (v/v) Tween-20+1% (v/v) heat-treated FBS (Invitrogen; FBS was heat treated for 15 minutes at 65° C. and filtered). BioScale Universal Detection Cartridges were used in performing all of the assays. The device was used per the manufacturer's instructions. The ligand of interest, capture ligand, target protein, and probe ligand used in example AMMP assays performed are highlighted in the table below.
(§2) A competing ligand of unknown Kd was incubated with the target and allowed to equilibrate. The target protein bound to the competing ligand is not anchored to the magnetic beads. Subsequent wash steps thereby […]. The Kd of interaction between the target protein and the competing ligand can then be determined by quantifying the amount of free target in solution.

[2] = molecular target: T1, Bim peptide (synthetic 26-residue …); assay: equilibrium ELISA and AMMP, monovalent model, Kd and [L]0 fit simultaneously
[3] = molecular target: T1, Bim peptide (synthetic 26-residue …); assay: equilibrium ELISA, monovalent model
Protocol: (§3) After the capture ligand incubation, 100 μL of sample or standards were added in each well, and incubated for 1 hour at room temperature. Plates were washed, incubated with HRP-conjugated probe antibody (such as anti-HIS tag antibody) in sample buffer for 1 hour, washed, and incubated with TMB substrate (Thermo Scientific). Reactions were stopped after approximately 10 minutes with 2 M sulfuric acid, and the absorbance at 450 nm was measured via a plate reader (Molecular Devices). The ligand of interest, capture ligand, target protein, and probe ligand used in example ELISA assays performed are highlighted in the table below.
(§4) Enzymatic Kd Calculation Assay. The Kd values of ligands of interest were determined using a protocol modified from Friguet et al., Journal of immunological methods, 77, 305-319 (1985). The samples were prepared and analyzed by ELISA assay in a similar process as described above. The OD450 for the standards and their concentration values were fit to a four parameter logistic curve (standard curve). The concentration of the free Bcl-xL in solution (responsible for the signal) for each sample was calculated using the standard curve, and converted into percent of Bcl-xL bound by ligand in solution. For each ligand, the values for all the tested concentration of Bcl-xL and peptide in solution were fit simultaneously to the monovalent equilibrium model below to obtain the dissociation constant Kd (in which [C]EQ, [T]₀, [L]₀ represent the concentration of the target-ligand complex at equilibrium, the initial concentration of the target protein, and the initial concentration of the ligand, respectively).
(§5) The equilibrium assay is a modified version of the method described by Friguet et al., supra. The samples were prepared and analyzed by ELISA assay in a similar process as described above.

[4] = molecular target: B1; assay: equilibrium AMMP, monovalent model
Protocol: as §1, §2

[5] = molecular target: B1; assay: equilibrium ELISA and AMMP, monovalent model, known [L]0
[6] = molecular target: B1; assay: calculated from the equilibrium Kd and the radiolabeled off-rate
Protocol: (§6) The Kd for the peptides is measured by the equilibrium ELISA/AAMP assays (Table 1). The off-rate for these peptides was obtained by measuring the dissociation rate for radiolabeled peptide-mRNA fusions bound to immobilized Bcl-xL. The on-rate was calculated based on the equilibrium Kd measurements and the radiolabeled off-rate.

[7] = molecular target: B1; assay: equilibrium ELISA/AMMP (value of Table 1 given again)
[8] = molecular target: B1; assay: equilibrium ELISA and AMMP, monovalent model, Kd and [L]0 fit simultaneously
[9] = molecular target: B1; assay: equilibrium ELISA, monovalent model
Protocol: as §3, §4, §5

[10] = molecular target: B1; assay: binding (equilibrium ELISA) Kd
Protocol: as §3, with “ELISA Assays. […] Plates were washed 3× with wash buffer (1×PBS+0.1% (v/v) Tween-20) and blocked with 1×PBS+5% (w/v) BSA for two hours. […] After” for “After”
Enzymatic Kd Calculation Assay. The Kd values of ligands of interest were determined using a protocol modified from Friguet et al., Journal of immunological methods, 77, 305-319 (1985). The samples were prepared and analyzed by ELISA assay in a similar process as described above. The OD450 for the standards and their concentration values were fit to a four parameter logistic curve (standard curve). The concentration of the free Bcl-xL in solution (responsible for the signal) for each sample was calculated using the standard curve, and converted into percent of Bcl-xL bound by ligand in solution. […]

[11] = molecular target: B1; assay: dissociation of radiolabeled construct from immobilized Bcl-xL with excess Bcl-xL in solution
Protocol: (§7) The radiolabeled peptides were allowed to bind to 30 pmol immobilized Bcl-xL for 1 hour in sample buffer (1×PBS, 1% (w/v) BSA, 0.1% (v/v) Tween 20, 10 μM biotin). The beads were magnetically separated, and washed 5× with sample buffer. The beads were resuspended in 1 mL of sample buffer containing 3 μM non-biotinylated Bcl-xL (˜100× molar excess relative to immobilized biotinylated Bcl-xL). At various time points, 100 μL of slurry was removed and the beads were magnetically separated and washed. The percent remaining at each time point was determined by dividing the counts per minute (cpm) on beads by total cpm (beads+washes). The peptide off-rate was determined by an exponential fit of the Percent counts on beads vs. Time (s).
as §6

[12] = molecular target: B1; assay: radiolabeled HA-tagged peptide off-rate from immobilized Bcl-xL
Protocol: as §7
The peptide ligands were made using a C-terminal HA tag, and affinity purified.

Binder	Kd [4] [nM]	Kd [5] [nM]	kon [6] [M⁻¹ s⁻¹]	Kd [7] [nM]	Kd [8] [nM]	Kd [9] [nM]	koff [11] [s⁻¹]	also measured
B1	–	–	–	–	–	–	–	Kd [1]: 0.077 nM; Kd [2]: 0.15 nM; Kd [3]: 0.17 nM
B2	0.315	0.3	53000	0.3	0.24	0.29	–	–
B3	0.045	0.039	310000	0.039	0.027	0.034	–	Kd [10]: 0.039 nM
B4	0.012	0.0085	240000	0.0085	0.014	0.007	–	Kd [10]: 0.009 nM
B5	–	–	–	–	–	–	2e-06	koff [12]: 2e-06 s⁻¹
B6	–	–	–	–	–	–	1.2e-05	koff [12]: 7.4e-06 s⁻¹
B7	–	–	–	–	–	–	1.6e-05	–
